Experimental findings from patent US20160024208A1 are described below.

A value given as a limit tells only on which side of the number the result lay.

Experiment [1] addresses full-length human Nav1.7 fused at its N-terminus to GFP, expressed in HEK293 cells (human) (UniProt Q15858). The experiment is described as follows: cell-based or functional assay.
Experiment [2] has the same target. The experiment is described as follows: flow cytometry on Nav1.7-GFP-HEK293, antibody 3.3 nM. Background: In flow cytometry, cells or beads pass a laser one at a time.
Experiment [3] has the same target. In words: flow cytometry on Nav1.7-GFP-HEK293, antibody 3.3 nM preincubated with 3.3 uM EC 3-1 peptide as competitor.
The target is the same in experiment [4]. In words: flow cytometry; % stained hNav1.7-GFP-HEK293 minus parental HEK293.
Experiment [5] addresses N-term Biotin Nav1.7 (3-3) peptide, mouse (mouse). In words: ELISA on coated peptide.

B1: H4H441B (antibody, V domains shown)
VH: QVQLQQWGAGLLKPSETLSLTCAVYGGSFSGHYWTWIRQPPGKGLEWIGEINHRGNTNYNPSLKSRATISVDTSKNQFSLKLSSVTAADTAVYYCAREGSLAARLWFFDLWGRDTPVTVSS
VL: DIQMTQSPSSLSASVGDRGTVTCRASQNIRTYLNWYQQKPGKAPKLLIYAASSLQSGVPSRFSGSGSGTDFTLTISSLQPEDFATYYCQQSYGTPYTFGQGTKVEIKR
In the case of B1, the Current blocking (Average % inhibition), IonWorks Quattro, 223 nM antibody in experiment [1] came to 81%.

B2: H4H448B (antibody, V domains shown)
VH: EVQLVQSGGGLVQPGRSLRLSCAASGFTFDDYAMHWVRQAPGKGLEWVSGISWNSGSIGYADSVKGRFTISRDNAKNSLYLQMNSLRAEDTALYYCAKDIEYYDILTGYYSYYIMDVWGQGTTVTVSS
VL: DIRMTQSPSSLSASVGDRGTITCRASQNINSYLNWYQLKPGKAPKLLIFAASSLQSGVPSRFSGSGSGTDFTLTISSLQPEDFATYYCQQSYSSPFTFGQGTKVEIKR
On to B2, for which the % Binding Nav1.7 (Stable Line) in experiment [2] was 9.2%. The % Binding Nav1.7 + 1000x Peptide (Competition Binding) in experiment [3] turned out to be 5.8%. In addition, the % Binding Nav1.7 in experiment [4] is 9.2%.

B3: H4H471B (antibody, V domains shown)
VH: EVQLVESGGGLVKPGGSLRLSCAASGVTFSDYYMTWIRQAPGKGLEWVSYISTDGRTIYYADSVKGRFTISRDNAKNSLYLQMNNLRAEDTAVYYCARGVDSDDYEDFYSYYDMDVWGQGTTVTVSS
VL: DIQMTQSPSSLSASVGDRVTITCRASQGISNYLAWFQQKPGKAPKSLIYAASSLQGGVPSRFSGSGSGTDFTLTISSLQPEDFATYYCQQYNSYPLTFGGGTKVEIKR
In experiment [5], B3 returned an OD450 of less than 0.2 od.

B4: H4H443B (antibody, V domains shown)
VH: QVQLVESGGGLVQPGRSLRLSCAASGFTFDDYAMHWVRQVPGKGLEWVSGINWNSGSIGYADSVKGRFTISRDNAKNSLFLQMNSLRAEDTALYYCAKDIEYYDILTGYYSYYIMDVWGQGTTVTVSS
VL: DIQMTQSPSFLSASVGDRVTITCWASQGISSYLAWYQQKPGKAPKLLIYASSTLQSGVPSRFSGSGSGTEFTLTISSLQPEDFATYYCQQFNSYPPTFGQGTKVEIKR
With B4, the % Binding Nav1.7 (Stable Line) in experiment [2] stood at 10.1%. Moreover, in experiment [3], the % Binding Nav1.7 + 1000x Peptide (Competition Binding) worked out at 5.1%. Besides, the % Binding Nav1.7 in experiment [4] was 10.1%.

B5: H4H382B (antibody, V domains shown)
VH: EVQLVQSGGGVVQPGRSLRLSCEASGFTFSSYGMHWVRQAPGKGLEWVAVISYDGSNKHYTDSVKGRFTISRDNSKNTLYLQMNSLRAEDTAVYFCAQSRGYSYGLGYWGQGTLVTVSS
VL: DIQMTQSPDSLAVSLGERATINCKSSQSVLSSSNNENYLVWYQQKPGQPPKLLIYWASTREPGVPDRFSGGGSGTDFTLTISSLQAEDVAVYYCQQYHSIPYTFGQGTKVEIKR
On to B5, for which the Current blocking (Average % inhibition), IonWorks Quattro, 223 nM antibody in experiment [1] is -6%. For the same molecule, in experiment [4], the % Binding Nav1.7 is 13%.
